Data published in patent US20160046707A1 (EISAI R AND D MANAGEMENT, published 2016).
Positions count from the first letter of the chain named.

Assays:
[1] = target: T1, cynomolgus CCL20-secreted alkaline phosphatase (SEAP) fusion (cynomolgus monkey); assay: ELISA (fluorescent HRP substrate): CCL20-SEAP captured on anti-alkaline phosphatase in 5-fold dilutions from 20 nM (x axis, nM), antibody at 1 ug/ml
T1 construct: also called cCCL20; cynomolgus CCL20-SEAP; not shown: the SEAP reporter (cDNA from Clontech pSEAP-Enhancer) and its junction to CCL20
T1 chain: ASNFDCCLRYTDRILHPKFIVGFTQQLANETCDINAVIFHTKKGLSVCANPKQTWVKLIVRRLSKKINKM
Method: (§1) To test whether the chimeric and humanized antibodies can bind to mouse, cynomolgus, or rhesus macaque CCL20 orthologs, we used ELISA assays as illustrated in FIG. 15. Recombinant secreted alkaline phosphatase (SEAP)-chemokine fusion proteins were engineered as described in Example 2, expressed and purified for all of the CCL20 orthologs tested. Nunc MaxiSorb flat-bottom black plates were coated with 1 μg/ml mouse anti-placental alkaline phosphatase antibody (Pierce, cat# MA1-19354) in 50 mM sodium bicarbonate, pH 9.4, overnight at 4° C. Plates were then blocked using 1× phosphate buffered saline with Tween-20 (PBST) with 5% bovine serum albumin (BSA) for 2 hours at room temperature. 20 nM SEAP-CCL20 fusion proteins were serially diluted 5-fold in Opti-MEM medium (Invitrogen). Chimeric and humanized (HC2/LC3 and HC2/LK3) antibodies were diluted to 1 μg/ml in 1×PBST with 5% BSA, added to the plates, and incubated for 1 hr at room temperature. The plates were then washed with 1×PBST with 5% BSA three times. […] QuantaBlu fluorescent HRP substrate (Pierce cat#15169) was added for detection of bound antibody by measuring fluorescence in a Molecular Devices M5 (Excitation 325 nm/Emission 420 nm) plate reader.
(§2) While the hamster anti-mouse CCL20 antibody 2F5-5 MAb bound mouse CCL20 with a 50% effective dose (EC₅₀) of 64 pM (data not shown), neither the chimeric nor humanized anti-human CCL20 antibodies bound detectably to mouse CCL20 or rat CCL20 under the conditions described above. By contrast, both the chimeric and humanized antibodies effectively bound to human, rhesus, and cynomolgus CCL20 (FIGS. 16A-C, 17A and B).

[2] = target: T2, human CCL20-secreted alkaline phosphatase (SEAP) fusion (human, UniProt P78556 27-96); assay: as above
T2 construct: also called hCCL20; human CCL20-SEAP; not shown: secreted alkaline phosphatase (SEAP), cDNA from pSEAP-Enhancer vector (Clontech)
T2 sequence (P78556 27-96): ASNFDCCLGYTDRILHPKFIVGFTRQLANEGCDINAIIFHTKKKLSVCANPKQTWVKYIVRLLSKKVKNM
Method: as §1, §2

[3] = target: T3, rhesus CCL20-secreted alkaline phosphatase (SEAP) fusion (rhesus monkey); assay: as above
T3 construct: also called rCCL20; rhesus CCL20-SEAP; not shown: the SEAP reporter (cDNA from Clontech pSEAP-Enhancer) and its junction to CCL20
T3 chain: T1 chain with I38V
Method: as §1, §2

[4] = target: T1, cynomolgus CCL20-secreted alkaline …; assay: ELISA, serially diluted CCL20-SEAP captured by anti-alkaline phosphatase antibody, antibody at 1 µg/ml; cynomolgus CCL20-SEAP
Method: as §1

[5] = target: T2, human CCL20-secreted alkaline …; assay: ELISA (fluorescent HRP substrate): CCL20-SEAP captured on anti-alkaline phosphatase in 5-fold dilutions from 20 nM (x axis, nM), antibody at 1 ug/ml; the text rounds this number to 62 pM
Method: as §1, with “reader. […]” for “reader.”

recombinant human CXCL4 [6] = target: T4, recombinant human CXCL4 (human, UniProt P02776 32-101); assay: ELISA, plate-bound chemokine (1 ug/ml), antibody 10 ug/ml, OD450
T4 construct: also called PF4
T4 sequence (looked up): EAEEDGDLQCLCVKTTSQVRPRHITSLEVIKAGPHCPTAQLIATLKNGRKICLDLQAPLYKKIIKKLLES
Outline: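 Wells coated overnight at 4 °C with 1 μg/ml recombinant human chemokine in PBS, blocked 1 h, then incubated 1 h at room temperature with antibodies at 10 μg/ml in 0.02% Tween 20/PBS. TMB development 15–30 min, stopped with 2 M H2SO4, OD read at 450 nm.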

[7] = target: rat CCL20-secreted alkaline phosphatase (SEAP) fusion (rat, UniProt P97884 27-96; P05187 23-511); assay: ELISA on CCL20-SEAP, Abs 450; x axis 'ug/ml' in 4-fold steps down from 10, taken as the antibody concentration as in FIG. 11C
Chain of rat CCL20-secreted alkaline phosphatase (SEAP) fusion (P97884 other isoform, or with tags, fused parts or gaps): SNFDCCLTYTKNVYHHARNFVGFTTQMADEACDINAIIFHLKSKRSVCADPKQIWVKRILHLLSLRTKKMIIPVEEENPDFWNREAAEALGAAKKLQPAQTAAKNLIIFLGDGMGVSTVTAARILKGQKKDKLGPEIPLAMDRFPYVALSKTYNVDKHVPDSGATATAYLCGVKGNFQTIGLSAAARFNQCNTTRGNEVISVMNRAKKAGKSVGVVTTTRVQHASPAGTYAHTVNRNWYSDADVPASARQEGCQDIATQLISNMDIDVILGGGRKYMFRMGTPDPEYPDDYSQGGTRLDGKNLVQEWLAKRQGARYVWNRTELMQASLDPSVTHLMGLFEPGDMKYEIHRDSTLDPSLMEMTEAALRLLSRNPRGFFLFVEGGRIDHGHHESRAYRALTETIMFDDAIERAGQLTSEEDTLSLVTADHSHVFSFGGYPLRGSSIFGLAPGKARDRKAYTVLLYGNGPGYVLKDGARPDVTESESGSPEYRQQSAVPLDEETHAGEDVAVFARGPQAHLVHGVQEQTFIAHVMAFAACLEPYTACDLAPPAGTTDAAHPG

[8] = target: T1, cynomolgus CCL20-secreted alkaline …; assay: as above
[9] = target: T2, human CCL20-secreted alkaline …; assay: as above
[10] = target: T3, rhesus CCL20-secreted alkaline …; assay: as above
recombinant human CXCL4 [11] = target: T4, recombinant human CXCL4; assay: SPR (Biacore): antibody captured on the sensor chip, free chemokine injected; concentration not shown

B1: humanized anti-human CCL20 antibody 36LK3/36HC2 (antibody, human IgG1, kappa, V domains shown)
VH: QVQLVQSGAEVKKPGASVKVSCKASGYTFTNYWMHWVRQAPGQGLEWMGVIDPSDSYTTYAQKFQGRVTMTVDTSTSTVYMELSSLRSEDTAVYYCARGNYGVDYAMDYWGQGTLVTVSS
VL: DIQMTQSPSSLSASVGDRVTITCGASENIYGALNWYQRKPGKAPKLLIYGATNLADGVPSRFSGSGSGRDYTLTISSLQPEDFATYYCQNVLITPYTFGQGTKLEIKR
notes: expressed in HEK293 cells; also called HC2/LK3; HC2LK3
For B1, the EC50 [1] was 0.162 nM, the EC50 [2] was 0.0459 nM and the EC50 [3] was 0.0629 nM.

B2: humanized anti-human CCL20 antibody 36LC3/36HC2 (antibody, human IgG1, kappa, V domains shown)
VH: B1 VH
VL: B1 VL with G24R, R38Q, D70Q, T72S, Q100G
notes: expressed in HEK293 cells; also called HC2/LC3; HC2LC3
For B2, the EC50 [4] was 0.34 nM and the EC50 [5] was 0.0619 nM.

B3: mouse anti-human CCL20 monoclonal antibody 36F7C10 (antibody, V domains shown)
VH: QVQLQQPGAELVKPGASVKMSCKASGYTFTNYWMHWVKQRPGQGLEWIGVIDPSDSYTTYNQKFKGKATLTVDTSSSTAYMQLSSLTSEDSAVYYCTRGNYGVDYAMDYWGQGTSVTVSS
VL: DIQMTQSPASLSASVGETVTITCGASENIYGALNWYQRKQGKSPQLLIYGATNLADGMSSRFSGSGSGRQYSLKISSLHPDDVATYYCQNVLITPYTFGGGTKLEIK
notes: Mouse hybridoma antibody; also called MouseMAb; parental mouse clone 36F7C10
B3 was tested, and the binding result (recombinant human CXCL4 [6]) was “no binding (tested: 10 ug/ml)”, the binding result [7] was “no binding (tested: 10 ug/ml)” and the “EC50 (read off the curve)” value [8] was roughly 0.009 µg/mL. The “EC50 (read off the curve)” value [9] was roughly 0.009 µg/mL and the “EC50 (read off the curve)” value [10] was roughly 0.01 µg/mL.

B4: chimeric 36F7C10 antibody (36F7C10-hFc) (antibody, V domains shown)
VH: B3 VH
VL: B3 VL
notes: also called chimeric 36F710; Chimeric MAb
For B4, the binding result [7] was “no binding (tested: 10 ug/ml)”, the “EC50 (read off the curve)” value [8] was roughly 0.03 µg/mL and the “EC50 (read off the curve)” value [9] was roughly 0.03 µg/mL. For the same binder, the “EC50 (read off the curve)” value [10] was roughly 0.03 µg/mL, the EC50 [1] was 0.101 nM and the EC50 [2] was 0.0336 nM. The EC50 [3] was 0.0498 nM and the binding result (recombinant human CXCL4 [11]) was “no binding”.
